Values quoted from earlier work, collected in publication PMC3511906.
Like-named read-outs stand apart in the source and are kept apart here.

Key:
CXCR1 (Mus musculus) [1] = target: CXCR1 (Mus musculus) (UniProt Q810W6)
CXCR1 (Mus musculus) [2] = target: CXCR1 (Mus musculus) (UniProt Q810W6); remark: listed apart in the source
CXCR2 (Mus musculus) = CXCR2 (Mus musculus) (UniProt P35343)
Chain of CXCR2 (Mus musculus) (P35343 whole entry): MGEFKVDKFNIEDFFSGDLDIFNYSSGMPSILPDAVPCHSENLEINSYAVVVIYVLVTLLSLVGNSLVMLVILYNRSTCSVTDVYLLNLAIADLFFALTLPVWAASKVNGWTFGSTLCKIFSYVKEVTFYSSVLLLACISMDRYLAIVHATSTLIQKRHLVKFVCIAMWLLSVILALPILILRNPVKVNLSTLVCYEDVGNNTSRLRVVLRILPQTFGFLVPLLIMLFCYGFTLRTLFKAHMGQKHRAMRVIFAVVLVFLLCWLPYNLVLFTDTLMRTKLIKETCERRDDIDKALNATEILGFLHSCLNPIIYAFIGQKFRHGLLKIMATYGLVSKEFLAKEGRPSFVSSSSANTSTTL

Chain of MIP-2 (P10889 28-100): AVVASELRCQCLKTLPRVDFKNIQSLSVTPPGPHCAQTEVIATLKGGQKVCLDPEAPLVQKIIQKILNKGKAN
Chain of CXCR1 (Mus musculus) (Q810W6 whole entry): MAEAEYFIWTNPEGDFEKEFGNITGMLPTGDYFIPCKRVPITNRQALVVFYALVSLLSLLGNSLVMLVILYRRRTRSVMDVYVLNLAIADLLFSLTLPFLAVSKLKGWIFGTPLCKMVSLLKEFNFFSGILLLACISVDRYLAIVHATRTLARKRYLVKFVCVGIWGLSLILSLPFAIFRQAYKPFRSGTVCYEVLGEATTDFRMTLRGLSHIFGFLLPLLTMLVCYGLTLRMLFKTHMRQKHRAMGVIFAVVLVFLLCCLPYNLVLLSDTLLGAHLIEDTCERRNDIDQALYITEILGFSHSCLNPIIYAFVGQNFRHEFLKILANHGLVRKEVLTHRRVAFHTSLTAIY
Chain of CXCL8 (P10145 28-99): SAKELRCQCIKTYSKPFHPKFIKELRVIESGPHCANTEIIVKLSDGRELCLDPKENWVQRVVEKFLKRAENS

Kd (CXCR1 (Mus musculus) [1]) [nM]	Kd (CXCR1 (Mus musculus) [2]) [nM]	Kd (CXCR2 (Mus musculus)) [nM]	Substance
10	–	–	CXCL8 (from UniProt P10145)
–	643	3.5	MIP-2 (from UniProt P10889)
